Reference: PMC7807036

Assays:
thrombin (human) [1] = target: T1, thrombin (human) (UniProt P00734+P00734); test: fibrinogen clotting (light scattering); settings: Clotting: 20 mM Tris, 150 mM NaCl, 5 mM KCl, 1 mM MgCl2, 1 mM CaCl2, pH 7.4, 12 nM thrombin, 25 C, 5 min; AFM binding conditions not given in the material
thrombin (human) [2] = target: T1, thrombin (human); test: AFM; settings: Clotting: 20 mM Tris, 150 mM NaCl, 5 mM KCl, 1 mM MgCl2, 1 mM CaCl2, pH 7.4, 12 nM thrombin, 25 C, 5 min; AFM binding conditions not given in the material

Substance: Aptarray (rectangular origami, 36 TBA15 + 36 HD22, 5.4 nm)
- binding signal (% inhibition of thrombin) (thrombin (human) [1]): 98.3

Substance: origami nanostructure IV (9 TBA15 + 9 HD22, ~5.4 nm)
- binding signal (% of origami with bound thrombin) (thrombin (human) [2]): 76
